# Laboratory results as given in patent US9035028B2, “Temperature sensitive conjugate compositions” (Emory University, priority 2010, dated 2015).
# What was measured:
# [1] = molecular target: T1, GPIIb/IIIa on human platelets (Homo sapiens, UniProt P05106+P08514); experiment: Flow cytometry: binding to human platelets; details: for binding to human activated platelets: 20 μM ADP
# T1 construct: endogenous in cells
# Procedure: (§1) Human blood was collected by venipuncture with a 21-gauge butterfly needle from healthy volunteers and anticoagulated with citric acid. Platelet-rich plasma (PRP) was obtained by centrifugation (GS-6R centrifuge, Beckman Coulter) at 100×g at room temperature for 10 min.
# (§2) Human PRP was diluted 1/50 in modified Tyrode's buffer containing 2 mM MgCl2 and 2 mM CaCl2. Platelets were either activated by addition of 20 μM ADP, or non activated, followed by the incubation with 15 and 50 μg/mL EMP-scFv fusion protein or EMP at 22° C., 32° C. and at 37° C. for 15 min. Mouse platelets were either pre-activated for 10 min by addition of 0.1 U/mL thrombin (Enzyme Research Laboratories), or non activated, before the incubation with 15 and 50 μg/mL of EMP-scFv fusion protein at 22° C., 32° C. or 37° C. for 15 min. In both, human and mouse samples, EMP-scFv was detected via 15 min in-dark incubation with secondary antibody (Penta-His Alexa Fluor 488, Qiagen) directed against the His(6)-tag of the single-chain antibody.
# In re-warming experiments, activated and non-activated diluted human PRP was incubated with 15 and 50 μg/mL of EMP-scFv for 15 minutes at 22° C., followed by a 15-min in dark incubation with secondary Penta-His Alexa Fluor 488 antibody. Half of the reaction was then fixed with 1× Cell FIX, while the other half was incubated at 37° C. for either 15 or 30 minutes, before being fixed and measured in FACS.
# [2] = molecular target: T1, GPIIb/IIIa on human platelets; experiment: Flow cytometry: inhibition of fibrinogen binding to human platelets; format: cell-based
# Procedure: as §1, §2
# Fibrinogen binding to human activated platelets in the presence of EMP-scFv was determined with a polyclonal rabbit anti-human fibrinogen FITC-labelled antibody (DakoCytomation), while the effects of EMP-scFv on fibrinogen binding to mouse platelets were determined using FITC-conjugated rabbit anti-fibrinogen polyclonal antibody (Cemfret). Fluorescence detection was performed as described above. Samples were measured in a FACSCalibur® flow cytometer (Becton Dickinson), after fixation with 1× CellFIX® (Becton Dickinson).
# [3] = tested on: platelet aggregates; experiment: Flow chamber: binding to platelet aggregates under physiological flow; format: cell-based; details: hypothermic temperatures
# Procedure: Temperature-dependent binding of EMP-scFv to platelet aggregates was analysed using a flow chamber system. Vitrotubes rectangular capillaries (0.20×2.0 mm) were washed with 70% ethanol, dried, and coated overnight with 10 μg/ml of collagen (Collagen Reagent Horm Nycomed). Liquid was entered into the capillary via capillary drag. Capillaries were blocked for 1 hour with 1% BSA and then washed with PBS. The capillary was connected on the one end to a reservoir and on the other end to a Harvard medical pump by tubing. Before connecting the capillary all tubes were flushed with PBS in order to avoid air bubbles entering the capillary. PRP was then drawn into the capillary and numerous platelet aggregates were formed within 10 minutes. The capillary was then washed with PBS via the pump. In the meantime, the EMP-scFv (50 μg/mL) was incubated with PENTA-HIS Alexa Fluor 488 (Qiagen) antibody for 10 minutes in a final volume of 1 mL, and then drawn into the capillary containing platelet aggregates at physiological flow rate of 60s^−1. The capillary was then imaged with a 20× magnification objective, after which DIC and fluorescent images were captured using Olympus IX81 microscope with XM10 camera. The experiments were conducted at 22° C. and 37° C.
# [4] = tested on: human platelets; experiment: 96-well plate light transmission aggregometry, ADP-driven platelet aggregation; format: cell-based; details: 22° C.
# Procedure: Light transmission aggregometry was performed using a Biorad Benchmark plate reader. After incubation of human PRP with EMP-scFv (15 μg/mL), vehicle (PBS) or the GPIIb/IIIa blocker abciximab (10 μg/mL) (Reopro®, Eli Lilly, Indianapolis, U.S.A.) for 10 minutes at different temperatures, the aggregation was induced by the addition of 2 or 20 μM ADP with vigorous stirring in a 96-well plate. The absorbance was determined at 595 nm every 15 seconds for 16 minutes between vigorous shaking at 22° C. and 37° C.
# [5] = tested on: carotid artery thrombosis; experiment: Ferric chloride-induced mouse carotid artery thrombosis model; format: in vivo; details: compared to the control group
# Procedure: C57BL/6 mice weighing from 20-25 g were used. Care and use of laboratory animals followed the national guidelines and were approved by the institutional animal care and ethics committees. Mice were anesthetized with isoflurane, following an intra-peritoneal injection with ketamine (100 mg/kg BW) and xylazine (20 mg/kg BW). The body core temperature was monitored with a digital thermometer, and controlled at either 28° C. or 37° C. with a thermal pad (Temperature Controller TR-200, Fine Science Tools Inc.). Reducing the body temperature to 28° C. was achieved by a gradual drop, at a rate of 0.3-0.4° C./min. The mice on the thermal pad were placed under a dissecting microscope (SZ61, Olympus). An incision of the skin was made directly on the top of trachea, and vessels used for experiment were bluntly isolated from surrounding tissues. […] After rinsing with normal saline, a nano-Doppler flow probe (0.5 VB, Transonic) was then positioned over the vessel and the blood flow rate (ml/min) was measured by a transit-time perivascular flow-meter (TS420, Transonic Systems Inc.). […] Jugular vein blood flow was recorded 15 minutes after induction of injury in mice pre-treated with EMP-scFv, eptifibatide or saline. The blood flow recorded at 1 minute was considered as the initial blood flow rate. […]
molecule,measurement,setting,value
"EMP-scFv: fusion of elastin mimetic polypeptide (EMP) and activation-specific GPIIb/IIIa-blocking single-chain antibody; 704 amino acids, approximately 70 kDa (protein) MAVPAVGIPAVGIPAVGIPAVGIPAVGIPAVGIPAVGIPAVGIPAVGIPAVGIPAVGIPAVGIPAVGIPAVGIPAVGIPAVGIPAVGIPAVGIPAVGIPAVGIPAVGIPAVGIPAVGIPAVGIPAVGIPAVGIPAVGIPAVGIPAVGIPAVGIPAVGIPAVGIPAVGIPAVGIPAVGIPAVGIPAVGIPAVGIPAVGIPAVGIPAVGIPAVGIPAVGIPAVGIPAVGIPAVGIPAVGIPAVGIPAVGIPAVGIPAVGIPAVGIPAVGIPAVGIPAVGIPAVGIPAVGIPAVGIPAVGIPAVGIPAVGIPAVGIPAVGIPAVGIPAVGIPAVGIPAVGIPAVGIPAVGIPAVGIPAVGIPAVGIPAVGIPAVGIPAVGIPAVGIPAVGIPAVGIPAVGIPAVGIPGGGGSMMAEVQLVESGGGLVQPGGSLRLSCAASGFMFSRYAMSWVRQAPGKGPEWVSGISGSGGSTYYADSVKGRFTVSRDNSKNTLYLQMNSLRAEDTAVYYCARIFTHRSRGDVPDQTSFDYWGQGTLVTVSSGSASAPKLEEGEFSEARVSSELTQDPAVSVALGQTVRITCQGDSLRNFYASWYQQKPGQAPTLVIYGLSKRPSGIPDRFSASSSGNTASLTITGAQAEDEADYYCLLYYGGGQQGVFGGGTKLTVLRQPKAAPSVTLFPPSSAAAGSEQKLISEEDLNSHHHHHH",binding to human activated platelets,[1]; 22° C.,significantly higher level
same,binding to human activated platelets,[1]; 37° C.,totally abolished
same,dissociation from GPIIb/IIIa upon re-warming,"[1]; bound to activated platelets at 22° C., then temperature increased to 37° C.",did not dissociate
same,binding to resting platelets,"[1]; human, regardless of the temperature",No binding
same,fibrinogen binding to human activated platelets,"[2]; 22° C., concentration-dependent",significantly reduced
same,fibrinogen binding to human activated platelets,[2]; 32° C.,inhibit the binding of fibrinogen
same,fibrinogen binding to human activated platelets,[2]; 37° C.,not inhibited
same,binding to platelet aggregates under flow,[3],induced binding
same,ADP-driven platelet aggregation,[4],effective inhibition
same,occlusion time,[5]; 28° C.,significantly prolonged
same,occlusion time,[5]; 37° C.,remained unchanged
